# Reference: the DeepSol protein solubility set
# Assay: soluble on expression in E. coli; label from the status in PepcDB or PDB records
row,Sequence,soluble on expression in E. coli
1,MAHHHHHHMPCNVSCSTSPNSVTGEPRFIMDFSMNKVAKYFRLLGYDTLCSRDVPQANLIPTACAEGRILVTCSRPLARSVQLHNQRVRTMRLGIAKAMTGAAHHVIAYDSDGESIYSEDSEEVDVELRCLFTQQWCSGEFKRAMIELIQQAGVTYDLNRVFRRCVTCNELLVTMEKEEVRGRVVAKIYEIYDEFTECPTCRKVFWGFDGVFAINYKSFRSLNLLRSLCICAGAPVEEERTRLNRLRCFRSFPRIAKVLIFSYLEDVDLANMTVVFPALRDLAEEVQASRQTGEPVRKMQLRKH,not soluble
2,MSGLHILAFGAHADDVEIGMAGTIAKYTKQGYEVGICDLTEADLSSNGTIELRKEEAKVAARIMGVKTRLNLAMPDRGLYMKEEYIREIVKVIRTYKPKLVFAPYYEDRHPDHANCAKLVEEAIFSAGIRKYMPELSPHRVESFYNYMINGFHKPNFCIDISEYLSIKVEALEAYESQFSTGSDGVKTPLTEGYVETVIAREKMFGKEVGVLYAEGFMSKKPVLLHADLLGGCKLGHHHHHH,soluble
3,MSLHPVSISLSSYGADLVRSRGQASFLPLLAMAGAQRVELREELFAGPPDTEALTAAIQLQGLECVFSSPLELWREDGQLNPELEPTLRRAEACGAGWLKVSLGLLPEQPDLAALGRRLARHGLQLLVENDQTPQGGRIEVLERFFRLAERQQLDLAMTFDIGNWRWQEQAADEAALRLGRYVGYVHCKAVIRNRDGKLVAVPPSAADLQYWQRLLQHFPEGVARAIEYPLQGDDLLSLSRRHIAALARLGQPQEERQHG,soluble
4,MNEQPNNENITQSASRDLQIIEDDAFSYEGYQVVRGEFFAHTYEPSFTFNANKVSVNTACIKKLPQTDFVQILVNPDEKKLAVRPCQEDEKDSFRWCSATKKRSPRQITCRIFFAKVISLMEWNPSYRYKLLGKLIRSDNELLFVFDLTTPEIYVRAEKEDGKIKTSRTPTYPAEWQNQFGVPVEEHQSNLQINMFDGYAVFGISENTQPSEEAQNTSVPPKEETHYEQSTLFPADPMHLEHHHHHH,soluble
5,MPSYKLTYFAVRGLAEPARLLFHLAGVPFEDERLTFGDGSWEKLKDKTPMGQMPVLNVDGFEIPQSAAITRYLARKFGFAGKTPEEEAWVDAVVDQFKDFFGEFRKLIIAQRAGKSVEEIEKLTKEVINPAVSSFFKILNGLLEKSKSGYLIGDSITFADLFIAEDMQSLKNFGFLNATEQPKIAAHLEKVYSHPKLKSYIASRPVTEI,not soluble
6,SEESVKPVPKHANHRRSSVRSSLYGDVRDLWSTATMSTANVSVSDVCEDFDEEGKSVRNRIRKYSQTISIRDSLNLEPEEIQQQARRELELCHGRSLEHGEDHEESETSLASSTSESLIFSLWKPHRTYWTEQQNRLPLPLMELMETEVLDILKKALITYRSTIGRNHFMTKELQGYIEGIRKRRNKRLYFLDQ,soluble
7,MGSDKIHHHHHHMKEVTLGRGMIPGVVPSLAFRRDVSSIVAKRNPSPSIRASFPVRDLFHALARSAGDSDTHHAARKFLDERLVEVAHLESDLPHDIAALPQWLEQRCARVRSDYRAYLADRHAGQQARYFSCRAHALHFLQSMAPSRMVEGAWLYGFLKHWREARFAPMCRVYLRNLGDGDPGCNQVSLYQKLLDRNGCADWHGLDDQYYVQGAIRLALGHHVDHYLPEIIGFNLGYDQVSLPMLIAAYELSEQGVLPHYFTLHVTEDDAGASSAMKLLGSLLDTADSAKAREMLLHRVNNGYKLHRLGLDIPGIVASFDLQKAFLAVMQPCAAYLERVYRIDCMERGIRGRWTDSLPLPLLLQQLCNEGWMHPDEKGKTRLWQVLERGNLLPAPGYPQQVVVDWSARSDEYGKRLPHTDVADLVPVSPPPARRPEEAEEHWADFNESGSQADLMEHMIRLLSPLAHHTQEGLKAARIYKSILEKGSELYSQHSALFLWHGRV,not soluble
8,MGHHHHHHSHMKPVKHLLTTSNKSANVPALTTKKGLHNLPLSPELKEKHNAKLIHDKIEPMVLRSPPTGESILRYALPIPSSKTKNLLPEDEMIGKIIKHLKMVVSTLEETYGHCDQNGEEPFVKHEHEELSLSVGDDMNSFLTYCSQFAAQLEEALKEEQNILESLFKWFQWQVNQMEEISKDQTLLQAEPPKPDKTVILNIAEIVRLVQRFEELKNRLKQRSKSSVKVMLSKTMDKENRPEAVKSCEALAQKIEEFLEAHSTDEFKDVSATEPQL,soluble
9,MIHSLFFHNNTKGTPSMKHPIDSISAEIEDEQAYVDKLFGKLDEEVVAANQRLNDVMLHVDPANPDAEALVRRETEYHALNEKIDRLNIAQLGLVFGRIDVTAQRTDLIDNWVAGTDNVDRRYIGRMGLDDRQNDYRTLLLDWRAPLARPFYLATTAHPEGVLHRRHIRTQGRSVVGVDDEVLSGVSAESAHSERADVVSETALYRAMCSARTGHMHSIVETIQREQDDIIRDPTRGVMVVEGGPGTGKTAVALHRVAYLLYTWRDQLAKTGVLIVGPNRSFLDYISRVLPELGETGVVLSTVGDLYPGISGTAVEDSLAREIKGSEEMVTVLRRLVQEYQQIPSEPFTIKIDGLELTVTPDIVKKARTRARRSRRPHNEARPLFTEHLTELLSHQMADLIGADPMGGKNLLSAADIAQLHDELLEESVVAEIVDEYWPQLTPQDTLTSLLESQNMISTVAYDYDEETQEALWRQQGSPWAASDAALLDELAVIIGVPDPEKERAEQEKAWREQIKDAQDALEILTGSANTDLDDESDAEILSAHDVIDAETLARRQEVRDIRSTAQRAREDLAWAYGHVIVDEAQELTPMEWRMVMRRCPSRWMTLVGDTAQTSSPAGVDSWAEALEPFVSGRYVTHHLTINYRTPAEIMEWANKVLHVFAPDAVGSTALRQSGTPVRFENSDAHAIEIAQKLRQDDPSRLTAIIGPDSMANNEIFGVSDIKGLEYDHVVVTNPIDIVNGSPQGWQDLYVALTRATQSLCIIGDLPELS,not soluble
10,MVVGWHRPTRLHIDTQAITENVQKECQRLPEGTALFAVVKANGYGHGAVESAKAAKKGGATGFCVALLDEAIELREAGVQDPILILSVVDLAYVPLLIQYDLSVTVATQEWLEAALQQLTPESNTPLRVHLKVDTGMGRIGFLTPEETKQAVRFVQSHKEFLWEGIFTHFSTADEIDTSYFEKQAGRFKAVLAVLEELPRYVHVSNSATALWHPDVPGNMIRYGVAMYGLNPSGNKLAPSYALKPALRLTSELIHVKRLAAGEGIGYGETYVTEAEEWIGTVPIGYADGWLRHLQGFTVLVNGKRCEIVGRVCMDQCMIRLAEEVPVGPVVTLVGKDGNEENTLQMVAEKLETIHYEVACTFSQRIPREYN,soluble
11,MKFNIRGENIEVTPALKEYVEKKLSKLERYFDTFPEIKVNLKVYSDKQRVEVTIPFTDLLLRAEETNSDMYAAIDLVVDKLERQIRKHKTKVNRKLREKGSMKTNFILPEAVAVLDEVEEDELELVRTKRFDLKPMDVEEAILQMDMLGHNFFVFTNADTNETNVVYGRKDGKYGLIETKLEHHHHHH,not soluble
12,MGHHHHHHSHMGLWQQISNCMPDLALCSDIKFFLRCLERWLNRNSSALQLPARSTQKEIISAFPTKVPSSSHWDWLDSGCSPQKASRSRVGCRLTREAQGVRELPPLAKGSCEGLCREERGIPAQILCFPHGLCNPQTRRFPWVPAPPGPWVSSKKLGSHLGRH,not soluble
13,MLRPLSKTDCPMLQEINAKALGYLVSLDLLERQYERLIEDCHHYFLAYADKDTNQLLGYVHAERYETLYASDGLNLLGLAVLPAYQRRGIGSALLRALESQARQEGIAFIRLNSASHRKEAHAFYRNLDYADDKTQLRFIKNLQGDDNDF,not soluble
14,SKAVIVIPARYGSSRLPGKPLLDIVGKPMIQHVYERALQVAGVAEVWVATDDPRVEQAVQAFGGKAIMTRNDHESGTDRLVEVMHKVEADIYINLQGDEPMIRPRDVETLLQGMRDDPALPVATLCHAISAAEAAEPSTVKVVVNTRQDALYFSRSPIPYPRNAEKARYLKHVGIYAYRRDVLQNYSQLPESMPEQAESLEQLRLMNAGINIRTFEVAATGPGVDTPACLEKVRALMAQELAENA,soluble
15,MSLKDINIGVVLPLTGTVAAYGQDVFNGIELANKLQPKLSNGDVIKLITIDTKGDKLETSNGVNRLIATDKVLGIIGEATTPNTIQAISIAEEKKIPLIAPVASGDKLLDKKKYASRVCFKDSFQGDKFATYVSKDLGLKNAVIIIDQSNVYSLGLARAFENSFKNNGGKIIKKLVINSGDKDFRAVVSQLKSLNPDFVYMPIYHPEAALIARQARQIGFDKLLVAGDGVNNQTFIDLGGSAVNGVIFTDSFDYNSPSTQLGKDFVAAYEKVKGTKELPAFSAMGADAYFVMLNAMNACVDNLSSECINSKIHQTKDFQAVGGVISIDESGNAIRSVVIKEIQNQKQNYKTIINEGHHHHHH,soluble
16,EGCYVATLEKCATCSQPILDRILRAMGKAYHPGCFTCVVCHRGLDGIPFTVDATSQIHCIEDFHRKFA,soluble
17,MSLKNIEKELENLRTIFRSIGLIKFKPYFSYMGLFKDDTMFGLYKEKCLYLRKSDQYLQEIKDTIPIHFLSDHKISRQSKIFYLVPQHIIENISSYSHWITSSISEYQRLRSKIRTENQTKIRILLNMNINIERLLARVNINTVDEFKQVGETKAFVRLIQQGFEVNQLLLFKLYGALQHKYIYMLSLEEKKRLLEQADSALYDAGLRKRFTVEGHHHHHH,soluble
18,MGSDKIHHHHHHMPEQNSFPPEVDHTRPNPARIYDYGLGGHHNFAADRDQFEKLLEVDPDARLVVSANRAFLRRAVRYCLRQGITQFLDLGSGIPTVGNVHEAAHQLNPRARVVYVDNEPIAVAHTRRLLRENENAEIVQADLRDPDAILGAPETQRLLDLSKPVGLMMVAVLHWVPSADVAGLLSRYREVLAPGSYLAISHLTSEHLPEQMGEVEDVFAETTEPVVYRPRSEAVKLFEGFELVPPGVVYTSQWQSEPYEMVEPPERTKIWAAVGRKL,not soluble
19,MPRVSASPRTPPPPVMDLRMSEDSAFPIDFSALTRAQLENITRVCHGSAGSVFQQAGLFTSAGLPIVNNVRLKLAQRDADAFTTFEELINLFEDFYGRLALIEDTQNNLLLSALSAGDEPGETLQ,not soluble
20,MSLRLEGVVVPLITPFLEDYSIDKEGLKWLVSYLSENGVNGIFVNSSVGEFASLTLDEMKLVTKIALDSRKSYSTLIFAGASTNFTEETIKLAKDFKDMGVDAIVVMAPYFFKVREKELLDHFSMIAEKVDLPIIIYNIPLFTGIDIPISVYKMLVSQHSNIIGTKVTLDSLIFFKKLISEIREIRKDFSILTGFDEYLLPLLYMGGNGGVMGLANAIPKLHLKVYESWKNGNLSDANKYWRNVLNLTDIYDYCNSYTASIKLLLKVLNMPIKNVVRPPLSICEEESKIRGMIKDLSSFLTNSEGHHHHHH,soluble
21,MFSEKFFTASFGPDDEQPAIKAAANNAAPIFHLFILEFLLFKYQLLSKDSEYPYLLIRAGDNNRPKKAERRDKASKMWSRNQEKHGSKKSEKSNQNKNFYVREFFSFGASSKKFPNHVFRDVF,not soluble
